Source: patent publication US12144843B2, “Methods and compositions for modulating myofibroblast activities” (THE REGENTS OF THE UNIVERSITY OF CALIFORNIA, priority 2011, dated 2024)
Entries after “also recorded” stand apart in the source; their conditions may differ.

Tests used:
myofibroblasts = assay: myofibroblast apoptosis; assay type: cell-based; conditions: for myofibroblast apoptosis: N=6
From the text: N=6. *, P<0.05; **, P<0.05.
(§1) Taken together, FMOD not only promotes TGF-β1-induced myofibroblast differentiation and contractility, but also accelerates myofibroblast clearance—resulting in lack of myofibroblast persistence in remodeling stage of FMOD-treated wounds.

RDF = assay: in vitro collagen gel contraction; assay type: cell-based, rat; conditions: FMOD alone; N=6
From the text: (§2) Activity level of myofibroblast is related to the activity of fibromodulin. Fibromodulin can promote myofibroblast differentiation and apoptosis.

[1] = system: rat dermal fibroblast (RDF); assay: western blotting and qRT-PCR of α-SMA expression in rat dermal fibroblasts; assay type: cell-based
From the text: Data are normalized to untreated RDFs at time 0 (dash lines). N=3. *, P<0.05.
as §2

adult rat wounds [2] = assay: α-SMA-positive myofibroblasts in wounds; assay type: in vivo; conditions: FMOD-treated wounds; day 14 post injury
From the text: as §1

myofibroblast = assay: immunofluorescent (IF) staining for α-SMA stress fibers, myofibroblast differentiation in vitro; assay type: cell-based; conditions: FMOD combined with TGF-β1
From the text: Formation of stress fibers stained strongly for α-SMA are indicated by yellow arrows. Scale bar=100 μm.
as §2

adult rat skin wounds = assay: scar formation and tensile strength of adult rat skin wounds; assay type: in vivo
From the text: as §1

adult rat wounds [3] = assay: PCR array assay of gene expression in adult rat wounds; assay type: in vivo; conditions: for expression of α-SMA in wounds: FMOD-treated adult rat wounds
From the text: Gene expression is normalized to unwounded skin (dashed lines). N=9 wounds from 9 animals. **, P<0.05.
Gene expression is normalized to unwounded skin (dashed lines). N=9 wounds from 9 animals. **, P<0.05

Molecule	interleukin (IL)-1β-mediated apoptosis in myofibroblasts (myofibroblasts; effect of TGF-β1)	myofibroblast apoptosis (myofibroblasts; FMOD alone)	myofibroblast apoptosis (myofibroblasts; in the presence of TGF-β1)	RDF contraction in collagen gel (RDF)	α-smooth muscle actin (α-SMA) expression ([1]; FMOD alone, western blotting and qRT-PCR, N=3)	TGF-β1-induced α-SMA expression ([1]; FMOD in the presence of TGF-β1, N=3)	TGF-β1-induced α-SMA expression ([1]; FMOD in the presence of TGF-β1, N=3, listed as Fibromodulin)	α-SMA-positive myofibroblasts (adult rat wounds [2])	myofibroblast differentiation and contractility in vitro (myofibroblast)	collagen architecture (adult rat skin wounds; adult rat primary closure wounds)	scar size (adult rat skin wounds; adult rat skin wounds, doses □ 0.4 mg/ml, day 14 post injury, compared to control)	tensile strength (adult rat skin wounds; adult rat wounds)	expression of α-SMA in wounds (adult rat wounds [3]; early 3-day time-point)	expression of α-SMA in wounds (adult rat wounds [3]; late 7- and 14-day time-points)	IL-1β expression (adult rat wounds [3]; day 3 and 7 adult rat wounds)	IL-10 expression (adult rat wounds [3]; day 3 and 7 adult rat wounds, PCR array)
TGF-β1: transforming growth factor (TGF)-β1, myofibroblast differentiation inducing agent	completely blocked	–	–	–	–	–	–	–	–	–	–	–	–	–	–	–
FMOD: fibromodulin protein; an example is SEQ ID NO:1 (Genebank NM 002023) (protein, listed as Homo sapiens) WTSLLLLAGLFSLSQAQYEDDPHWWFHYLRSQQSTYYDPYDPYPYETYEPYPYGVDEGPAYTYGSPSPPDPRDCPQECDCPPNFPTAMYCDNRNLKYLPFVPSRMKYVYFQNNQITSIQEGVFDNATGLLWIALHGNQITSDKVGRKVFSKLRHLERLYLDHNNLTRMPGPLPRSLRELHLDHNQISRVPNNALEGLENLTALYLQHNEIQEVGSSMRGLRSLILLDLSYNHLRKVPDGLPSALEQLYMEHNNVYTVPDSYFRGAPKLLYVRLSHNSLTNNGLASNTFNSSSLLELDLSYNQLQKIPPVNTNLENLYLQGNRINEFSISSFCTVVDVVNFSKLQVLRLDGNEIKRSAMPADAPLCLRLASLIEI	–	promoted myofibroblast apoptosis as effectively as IL-1β; also recorded: induces myofibroblast apoptosis as effectively as IL-10	promoted apoptosis even in the presence of TGF-1β	minimal effects	no significant effect	significantly enhances	significantly promoted	diminished; also recorded: decreased	significantly enhanced	more organized collagen architecture	significant smaller scar; also recorded: significantly reduces	stronger tensile strength; also recorded: increasing tensile strength in a dose dependent manner	significantly upregulated	reduced	significantly stimulated	significantly stimulated
